Consider four molecules from article PMC7242902.

For test [1], the target named is HiBiT/CXCR4, exogenously (stably) expressed in HEK293 cells (UniProt P61073).
The target in test [2] is HiBiT/CXCR4, genome-edited, in HEK293 cells (human (endogenous in HEK293)) (UniProt P61073).
The target of test [3] is CXCR4/LgBiT, transiently transfected in HEK293 cells (UniProt P61073).
For test [4], the target named is CXCR4/LgBiT, genome-edited, in HEK293 cells (human (endogenous in HEK293)) (UniProt P61073).
In test [5] the target is HiBiT/ACKR3, exogenously expressed in HEK293 cells (UniProt P25106).
Test [6] has as its target HiBiT/CXCR4, genome-edited, in HEK293 cells (human (endogenous in HEK293)) (UniProt P61073). The test can be described thus: FRET or BRET; NanoBRET saturation binding on live HEK293 cells with genome-edited HiBiT/CXCR4; CXCL12-AF647 for 60 min at 37°C, then furimazine (10 μM) and purified cell-impermeant LgBiT (10 nM) added, so that only receptors at the plasma membrane are seen; non-specific binding with AMD3100 (10 μM).

Test [7] concerns the target NLuc/ACKR3, exogenously (stably) expressed in HEK293 cells (UniProt P25106). The test can be described thus: FRET or BRET; NanoBRET saturation binding on membrane preparations (10 μg membrane protein per well) with NLuc-tagged receptor; increasing CXCL12-AF647 for 60 min at 37°C in HBSS with 0.1% BSA; non-specific binding with AMD3100 (10 μM) for CXCR4 or CXCL11 (10 μM) for ACKR3.

Test [8] concerns the target NLuc/CXCR4, exogenously (stably) expressed in HEK293 cells (UniProt P61073). Described as above.
The target of test [9] is NLuc/ACKR3, exogenously (stably) expressed in HEK293 cells (UniProt P25106). The test is described as follows: FRET or BRET; NanoBRET saturation binding on live cells (30,000 cells/well) with NLuc-tagged receptor; increasing CXCL12-AF647 for 60 min at 37°C in HBSS with 0.1% BSA; non-specific binding with AMD3100 (10 μM) for CXCR4 or CXCL11 (10 μM) for ACKR3; furimazine 10 μM.

The target in test [10] is NLuc/ACKR3, genome-edited, in HeLa cells (human (endogenous in HeLa)) (UniProt P25106). Described as above.
The target of test [11] is NLuc/CXCR4, genome-edited, in HeLa cells (human (endogenous in HeLa)) (UniProt P61073). The description is as above.
Test [12] has as its target NLuc/CXCR4, genome-edited, in HEK293 cells (human (endogenous in HEK293)) (UniProt P61073). The description is as above.
The target of test [13] is HiBiT/CXCR4, genome-edited, in HEK293 cells (human (endogenous in HEK293)) (UniProt P61073). The test can be described thus: split reporter (BiFC, NanoBiT); HiBiT-LgBiT complementation, saturation on membrane preparations (10 μg, 0.25 mg/ml saponin) from genome-edited HiBiT/CXCR4 HEK293 cells; increasing purified LgBiT; without AMD3100.
The target of test [14] is HiBiT-Halotag, control peptide. The test can be described thus: split reporter (BiFC, NanoBiT); HiBiT-LgBiT complementation of purified proteins: 1 nM HiBiT-Halotag in HBSS with 0.1% BSA, increasing purified LgBiT; without AMD3100.
The target of test [15] is HiBiT/CXCR4, genome-edited, in HEK293 cells (human (endogenous in HEK293)) (UniProt P61073). The test is described as follows: split reporter (BiFC, NanoBiT); HiBiT-LgBiT complementation, saturation on live HEK293 cells with genome-edited HiBiT/CXCR4; increasing purified LgBiT; in the presence of AMD3100 (10 μM).
For test [16], the target named is HiBiT-Halotag, control peptide. The test is described as follows: split reporter (BiFC, NanoBiT); HiBiT-LgBiT complementation of purified proteins: 1 nM HiBiT-Halotag in HBSS with 0.1% BSA, increasing purified LgBiT; in the presence of AMD3100 (10 μM).
Test [17] has as its target HiBiT/β2-adrenoceptor, genome-edited, in HEK293 cells (human (endogenous in HEK293)) (UniProt P07550). The test is described as follows: split reporter (BiFC, NanoBiT); HiBiT-LgBiT complementation, saturation on live HEK293 cells with genome-edited HiBiT-tagged receptor; increasing purified LgBiT for 30 min at 37°C in HBSS with 0.1% BSA; without AMD3100; non-specific luminescence on wild-type cells.

For test [18], the target named is HiBiT/CXCR4, genome-edited, in HEK293 cells (human (endogenous in HEK293)) (UniProt P61073). The test is described as above.
Test [19] shares this target. The test is described as follows: split reporter (BiFC, NanoBiT); HiBiT-LgBiT complementation, saturation on membrane preparations (10 μg, 0.25 mg/ml saponin) from genome-edited HiBiT/CXCR4 HEK293 cells; increasing purified LgBiT; in the presence of AMD3100 (10 μM).

In the case of “CXCL12 (from UniProt P48061 22-93) (ligand)”, in test [1], the pEC50 of CXCL12 for the decrease in luminescence (cell surface HiBiT/CXCR4 complemented with purified LgBiT, 10 nM) after 1 h at 37°C, live HEK293 cells stably overexpressing HiBiT/CXCR4 was 8.69 -log M. For the same molecule, the pEC50 of CXCL12 for the decrease in luminescence (cell surface HiBiT/CXCR4 complemented with purified LgBiT, 10 nM) after 1 h at 37°C, live genome-edited HEK293 cells in [2] was 8.46 -log M. Besides, the pEC50 of CXCL12 (0.3-300 nM) for the increase in NanoBiT luminescence (recruitment of genome-edited β-arrestin2/SmBiT, m14, to transiently transfected CXCR4/LgBiT), about 5 min after ligand addition in test [3] was 7.48 -log M. In test [4], the pEC50 of CXCL12 (0.3-300 nM) for the increase in NanoBiT luminescence (recruitment of genome-edited β-arrestin2/SmBiT, m14, to genome-edited CXCR4/LgBiT), about 5 min after ligand addition is 7.16 -log M and the pEC50 of CXCL12 (0.3-300 nM) for the increase in NanoBiT luminescence (recruitment of transiently transfected β-arrestin2/SmBiT, m13, to genome-edited CXCR4/LgBiT), about 5 min after ligand addition is 7.69 -log M. Moreover, the pEC50 of CXCL12 for the increase in luminescence of live HEK293 cells with exogenous HiBiT/ACKR3 complemented with purified LgBiT in [5] is 8.23 -log M.

On to “CXCL12-AF647 (from UniProt P48061 22-93) (ligand)”, for which the pKd in [6] was 7.49 -log M; in test [7] it was 8.83 -log M; in test [8], 7.55 -log M; in test [9] it was 8.12 -log M; in test [10], 8.77 -log M; in test [11], 7.58 -log M. Moreover, the pKd in [12] was 7.5 -log M.

Take Purified LgBiT (domain or fragment): the Kd in test [13] was 180 nM; in test [14], 6.99 nM; in test [15], 58.5 nM; in test [16] it was 7.73 nM; in test [17], 54.5 nM; in test [18], 230 nM. The Kd in test [19] is 115 nM.

B1: CXCL11 (ligand)
chain: FPMFKRGRCLCIGPGVKAVKVADIEKASIMYPSNNCDKIEVIITLKENKGQRCLNPKSKQARLIIKKVERKNF
Turning to B1, the pEC50 of CXCL11 for the increase in luminescence of live HEK293 cells with exogenous HiBiT/ACKR3 complemented with purified LgBiT in [5] was 7.48 -log M.
